# Numbering of substitutions follows the chain as printed.
# B1: 180 (protein)
# chain: LDNGLARTPTMGWLHWERFMCNLDCQEEPDSCISEKLFMEMAELMVSEGWKDAGYEYLCIDDCWMAPQRDSEGRLQADPQRFPHGIRQLANYVHSKGLKLGIYADVGNKTCAGFPGSFGYYDIDAQTFADWGVDLLKFDGCYCDSLENLADGYKHMSLALNRTGRSIVYSCEWPLYMWPFQKPNYTEIRQYCNHWRNFADIDDSWKSIKSILDWTSFNQERIVDVAGPGGWNDPDMLVIGNFGLSWNQQVTQMALWAIMAAPLFMSNDLRHISPQAKALLQDKDVIAINQDPLGKQGYQLRQGDNFEVWERPLSGLAWAVAMINRQEIGGPRSYTIAVASLGKGVACNPACFITQLLPVKRKLGFYEWDSRLRSHINPTGTVLLQLENTMQMSKDLLL
# modifications: Synthetic Polypeptide sequence of Variant No. 180 of mature Human GLA
# B2: 186 (protein)
# chain: B1 chain with V345N, D369T
# modifications: Synthetic Polypeptide sequence of Variant No. 186 of mature Human GLA
# B3: 42 (protein)
# chain: B1 chain with E367N, D369T
# modifications: Synthetic Polypeptide sequence of Variant No. 42 of mature Human GLA
# B4: 189 (protein)
# chain: B1 chain with V93I, D369T
# modifications: Synthetic Polypeptide sequence of Variant No. 189 of mature Human GLA
# B5: 188 (protein)
# chain: B1 chain with V359E, D369T
# modifications: Synthetic Polypeptide sequence of Variant No. 188 of mature Human GLA
# B6: 184 (protein)
# chain: B1 chain with V168A, D369T
# modifications: Synthetic Polypeptide sequence of Variant No. 184 of mature Human GLA
# B7: 185 (protein)
# chain: B1 chain with V168L, D369T
# modifications: Synthetic Polypeptide sequence of Variant No. 185 of mature Human GLA
# B8: 183 (protein)
# chain: B1 chain with V133I, D369T
# modifications: Synthetic Polypeptide sequence of Variant No. 183 of mature Human GLA
# B9: 187 (protein)
# chain: B1 chain with V345Y, D369T
# modifications: Synthetic Polypeptide sequence of Variant No. 187 of mature Human GLA
# B10: 191 (protein)
# chain: B1 chain with W178S, D369T
# modifications: Synthetic Polypeptide sequence of Variant No. 191 of mature Human GLA
# B11: 43 (protein)
# chain: B1 chain with E367T, D369T
# modifications: Synthetic Polypeptide sequence of Variant No. 43 of mature Human GLA
# B12: 181 (protein)
# chain: B1 chain with D369S
# modifications: Synthetic Polypeptide sequence of Variant No. 181 of mature Human GLA
# B13: 182 (protein)
# chain: B1 chain with D369T, T389S
# modifications: Synthetic Polypeptide sequence of Variant No. 182 of mature Human GLA
# B14: 41 (protein)
# chain: B1 chain with D369T, L396T
# modifications: Synthetic Polypeptide sequence of Variant No. 41 of mature Human GLA
# B15: 40 (protein)
# chain: B1 chain with D369T, L396R
# modifications: Synthetic Polypeptide sequence of Variant No. 40 of mature Human GLA
# B16: 190 (protein)
# chain: B1 chain with W178H, D369T
# modifications: Synthetic Polypeptide sequence of Variant No. 190 of mature Human GLA
# Experiment: HTP-analysis of yeast culture supernatants, no challenge (MUGal hydrolysis)
# Type: biochemical
# Conditions: activity of the variant/activity of WT GLA (SEQ ID NO: 5), yeast supernatant
# Method in brief: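 Activity read as 4-methylumbelliferyl α-D-galactopyranoside hydrolysis: fluorescence (355/448 nm) after sodium carbonate stop, following 30-180 min at 37° C with 2 mM MUGal stock at pH 4.6–4.8. Enzyme source is unchallenged culture supernatant of INVSc1 yeast expressing GLA variants, grown 66-84 h at 30° C.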
row,Molecule,Relative Activity of GLA Variants After No Challenge (NC)
1,B1,++ (++ = >1.5 to 2.5 relative activity over WT GLA (SEQ ID NO: 5))
2,B2,++ (++ = >1.5 to 2.5 relative activity over WT GLA (SEQ ID NO: 5))
3,B3,+++ (+++ = >2.5 relative activity over WT GLA (SEQ ID NO: 5))
4,B4,+ (+ = 0.5 to 1.5 relative activity over WT GLA (SEQ ID NO: 5))
5,B5,+ (+ = 0.5 to 1.5 relative activity over WT GLA (SEQ ID NO: 5))
6,B6,++ (++ = >1.5 to 2.5 relative activity over WT GLA (SEQ ID NO: 5))
7,B7,+ (+ = 0.5 to 1.5 relative activity over WT GLA (SEQ ID NO: 5))
8,B8,+ (+ = 0.5 to 1.5 relative activity over WT GLA (SEQ ID NO: 5))
9,B9,+ (+ = 0.5 to 1.5 relative activity over WT GLA (SEQ ID NO: 5))
10,B10,+ (+ = 0.5 to 1.5 relative activity over WT GLA (SEQ ID NO: 5))
11,B11,+ (+ = 0.5 to 1.5 relative activity over WT GLA (SEQ ID NO: 5))
12,B12,+ (+ = 0.5 to 1.5 relative activity over WT GLA (SEQ ID NO: 5))
13,B13,++ (++ = >1.5 to 2.5 relative activity over WT GLA (SEQ ID NO: 5))
14,B14,+ (+ = 0.5 to 1.5 relative activity over WT GLA (SEQ ID NO: 5))
15,B15,++ (++ = >1.5 to 2.5 relative activity over WT GLA (SEQ ID NO: 5))
16,B16,++ (++ = >1.5 to 2.5 relative activity over WT GLA (SEQ ID NO: 5))

# Experiment: HTP-analysis of supernatants pretreated with acid (MUGal hydrolysis)
# Type: biochemical
# Conditions: challenge at pH 4.2; activity of the variant/activity of WT GLA (SEQ ID NO: 5); yeast supernatant
# Method in brief: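 MUGal hydrolysis was tracked by fluorescence (Ex 355 nm, Em 448 nm) after a 30-180 min reaction at 37° C. in pH 4.8 McIlvaine/citrate buffer, stopped with 1 M sodium carbonate. Beforehand, yeast (INVSc1) culture supernatants carrying GLA variants were held 1-3 h at 37° C. in acidic McIlvaine buffer, pH 3.3-4.3.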
row,Molecule,Relative Activity of GLA Variants After Challenge at pH 4.2
1,B1,++ (++ = >1.5 to 2.5 relative activity over WT GLA (SEQ ID NO: 5))
2,B2,++ (++ = >1.5 to 2.5 relative activity over WT GLA (SEQ ID NO: 5))
3,B3,+++ (+++ = >2.5 relative activity over WT GLA (SEQ ID NO: 5))
4,B4,+ (+ = 0.5 to 1.5 relative activity over WT GLA (SEQ ID NO: 5))
5,B5,+ (+ = 0.5 to 1.5 relative activity over WT GLA (SEQ ID NO: 5))
6,B6,+ (+ = 0.5 to 1.5 relative activity over WT GLA (SEQ ID NO: 5))
7,B7,++ (++ = >1.5 to 2.5 relative activity over WT GLA (SEQ ID NO: 5))
8,B8,+ (+ = 0.5 to 1.5 relative activity over WT GLA (SEQ ID NO: 5))
9,B9,+ (+ = 0.5 to 1.5 relative activity over WT GLA (SEQ ID NO: 5))
10,B10,++ (++ = >1.5 to 2.5 relative activity over WT GLA (SEQ ID NO: 5))
11,B11,+ (+ = 0.5 to 1.5 relative activity over WT GLA (SEQ ID NO: 5))
12,B12,+ (+ = 0.5 to 1.5 relative activity over WT GLA (SEQ ID NO: 5))
13,B13,+ (+ = 0.5 to 1.5 relative activity over WT GLA (SEQ ID NO: 5))
14,B14,+ (+ = 0.5 to 1.5 relative activity over WT GLA (SEQ ID NO: 5))
15,B15,++ (++ = >1.5 to 2.5 relative activity over WT GLA (SEQ ID NO: 5))
16,B16,+ (+ = 0.5 to 1.5 relative activity over WT GLA (SEQ ID NO: 5))

# Experiment: HTP-analysis of supernatants pretreated with base (MUGal hydrolysis)
# Type: biochemical
# Conditions: challenge at pH 7.1; activity of the variant/activity of WT GLA (SEQ ID NO: 5); yeast supernatant
# Method in brief: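 GLA variants secreted from yeast INVSc1; culture supernatants pre-incubated with McIlvaine buffer pH 7.0–8.2 or 200 mM bicarbonate pH 9.1–9.7 at 37° C. for 1–18 h. Residual activity: MUGal (4 mM stock) hydrolysis at pH 4.3–4.8, 37° C., 30–180 min, carbonate quench; fluorescence Ex 355/Em 448 nm.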
row,Molecule,Relative Activity of GLA Variants After Challenge at pH 7.1
1,B1,+++ (+++ = >2.5 relative activity over WT GLA (SEQ ID NO: 5))
2,B2,+++ (+++ = >2.5 relative activity over WT GLA (SEQ ID NO: 5))
3,B3,+++ (+++ = >2.5 relative activity over WT GLA (SEQ ID NO: 5))
4,B4,+ (+ = 0.5 to 1.5 relative activity over WT GLA (SEQ ID NO: 5))
5,B5,+ (+ = 0.5 to 1.5 relative activity over WT GLA (SEQ ID NO: 5))
6,B6,+ (+ = 0.5 to 1.5 relative activity over WT GLA (SEQ ID NO: 5))
7,B7,+ (+ = 0.5 to 1.5 relative activity over WT GLA (SEQ ID NO: 5))
8,B8,+ (+ = 0.5 to 1.5 relative activity over WT GLA (SEQ ID NO: 5))
9,B9,+ (+ = 0.5 to 1.5 relative activity over WT GLA (SEQ ID NO: 5))
10,B10,+ (+ = 0.5 to 1.5 relative activity over WT GLA (SEQ ID NO: 5))
11,B11,+ (+ = 0.5 to 1.5 relative activity over WT GLA (SEQ ID NO: 5))
12,B12,+ (+ = 0.5 to 1.5 relative activity over WT GLA (SEQ ID NO: 5))
13,B13,+ (+ = 0.5 to 1.5 relative activity over WT GLA (SEQ ID NO: 5))
14,B14,+ (+ = 0.5 to 1.5 relative activity over WT GLA (SEQ ID NO: 5))
15,B15,++ (++ = >1.5 to 2.5 relative activity over WT GLA (SEQ ID NO: 5))
16,B16,++ (++ = >1.5 to 2.5 relative activity over WT GLA (SEQ ID NO: 5))
